This note sets out measurements from publication PMC5429843.

One series has as its target His186 (UniProt position 186, ITVKQHTVTTT). Briefly: NMR. The conditions noted are these: 20 °C, not stated (36 mM sodium phosphate + 36 mM sodium citrate, no added salt stated), folded RaPrP90-231, 1 mM.
A further series addresses His187 (UniProt position 187, ITIKQHTVTTT). Briefly: NMR. The conditions noted are these: 20 °C, not stated (36 mM sodium phosphate + 36 mM sodium citrate, no added salt stated), folded GHaPrP90-231, 1 mM.

“Major prion protein, C-terminal domain (RaPrP90-231) (Oryctolagus cuniculus (rabbit))”: the pKa (commonly the negative logarithm of the acid dissociation constant) in the series with His186 came to 5.1; with His186 (oxidised disulfide), 5.1 ± 0.1.
On to “Major prion protein, C-terminal domain (GHaPrP90-231) (Mesocricetus auratus (golden/Syrian hamster))”, for which the pKa with His187 is recorded as 4.9 ± 0.2; with His187 (oxidised disulfide. Progressive loss of amide dispersion and peak inhomogeneity near pH 5.) it was 4.9 ± 0.1.
